Experimental data published in PMC1459065.
Read-outs that look alike come from different tables or passages of the source.

B1: TGG-repeating 48mer (ssDNA)
DNA: TGGTGGTGGTGGTGGTGGTGGTGGTGGTGGTGGTGGTGGTGGTGGTGG
B2: CCA-repeating 48mer (ssDNA)
DNA: CCACCACCACCACCACCACCACCACCACCACCACCACCACCACCACCA

How the values were obtained:
RecA [1] = target: T1, RecA (Escherichia coli, UniProt P0A7G6 1-353); test: double filter binding
RecA [2] = target: T1, RecA; test: double filter binding; remark: listed apart in the source

T1 sequence (P0A7G6 whole entry): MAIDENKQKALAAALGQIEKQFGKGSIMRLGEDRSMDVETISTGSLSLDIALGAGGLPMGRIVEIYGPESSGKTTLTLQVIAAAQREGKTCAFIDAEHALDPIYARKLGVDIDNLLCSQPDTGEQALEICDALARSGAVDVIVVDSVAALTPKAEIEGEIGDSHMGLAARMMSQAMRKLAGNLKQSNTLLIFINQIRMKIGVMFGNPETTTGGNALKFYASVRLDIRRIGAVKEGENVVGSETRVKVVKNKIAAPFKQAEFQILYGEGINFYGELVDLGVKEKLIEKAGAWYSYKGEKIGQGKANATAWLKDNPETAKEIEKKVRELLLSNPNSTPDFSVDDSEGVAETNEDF

Binder	Kd (RecA [1])	Kd (RecA [2])
B1	91 nM	
B2		246 nM
